# The supplement of paper PMC9732359
# ± gives the uncertainty stated by the source.
# Test: protein stability index of a GFP-peptide fusion (yeast GPS) (PSI 1-4); higher = more stable; sorted into four equal gates, so the index is relative within each strain
# Procedure, shortened: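 Tiled 17-residue peptides from yeast proteins were fused downstream of GFP on a plasmid that also expresses Cherry, and the pooled library was carried in yeast. Mid-log cultures grown in leucine-free medium were sorted into four equal gates by GFP/Cherry fluorescence ratio. Plasmids from each gate were PCR-amplified and Illumina-sequenced, and reads were assigned to strains by barcodes. Each peptide's protein stability index is the sum, over gates, of the gate's read frequency multiplied by its gate number.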
Sequence,protein stability index (doa10∆),protein stability index (pdr5∆),protein stability index (san1∆),protein stability index (ubr1∆)
IVTKDGVRKEFYELKRD [PRE7],2.35 ± 0.093,2.16 ± 0.066,3.04 ± 0.082,3.16 ± 0.07
ELLLTTLSVSHGINLQN [SSN2],1.89 ± 0.044,2.04 ± 0.043,1.76 ± 0.081,2.19 ± 0.059
ILDIVINNPVNLTIHFG [FAS1],2.06 ± 0.088,2.4 ± 0.078,2.5 ± 0.097,3.02 ± 0.075
PVSPLDIYSDEASAQKK [RPS2],2.74 ± 0.095,2.93 ± 0.093,3.02 ± 0.075,3.02 ± 0.06
YLQETAISGKKTTYYYY [RPC82],2.77 ± 0.079,3.02 ± 0.14,2.84 ± 0.057,3.07 ± 0.075
IKETKENDEEFYKNKYS [RPN2],1.34 ± 0.13,1.5 ± 0.19,1.31 ± 0.26,1.51 ± 0.21
GIKKHSLWRRTVYSLSQ [YDL116W/NUP84],1.44 ± 0.066,1.29 ± 0.071,1.29 ± 0.14,1.48 ± 0.041
QQQQQQQQPQPQYNMNM [PGD1],2.33 ± 0.07,2.79 ± 0.065,2.67 ± 0.11,2.81 ± 0.16
VAKTAPNSNKTHTEQNN [SNF2],2.82 ± 0.04,3.07 ± 0.052,3.01 ± 0.033,3.06 ± 0.037
APQVYIITKNENFLKEV [GAL11],3.37 ± 0.24,–,–,3.5 ± 0.19
DELETKAEKKVELHGKR [PRP8],2.84 ± 0.19,2.95 ± 0.17,3.4 ± 0.26,2.63 ± 0.18
EDDNTPAGHAGNPTNIS [YDL088C/ASM4],2.87 ± 0.076,2.88 ± 0.063,2.91 ± 0.052,3.1 ± 0.046
HFVQEEPLAFYLEESFT [RGR1],2.32 ± 0.044,2.43 ± 0.039,2.67 ± 0.04,2.69 ± 0.031
YQVEYAFKATNQTNINS [SCL1],2.97 ± 0.072,3.19 ± 0.056,2.99 ± 0.081,3.06 ± 0.073
TRKGYIPSSKYAYMMNS [YLR018C/POM34],3.08 ± 0.11,2.73 ± 0.12,2.98 ± 0.21,2.65 ± 0.14
VAKVDEEGRAIPGEYIT [RPS21B],2.5 ± 0.095,2.52 ± 0.12,2.44 ± 0.1,2.77 ± 0.065
YHFPIFNKYADPTLTTT [RPN4],2.05 ± 0.037,2.22 ± 0.048,2.24 ± 0.048,2.3 ± 0.036
GRGGSGWKPYYKLFIWL [YML031W/NDC1],1.5 ± 0.055,1.78 ± 0.052,1.41 ± 0.089,1.31 ± 0.049
ATANATANATANVNASA [DSN1],2.78 ± 0.043,3 ± 0.037,3.17 ± 0.032,2.918 ± 0.025
PNERKAKQAKIRAGEFD [SNF2],3.62 ± 0.12,3.66 ± 0.18,2.99 ± 0.17,3.5 ± 0.14
SIQEQIQEFQGNPYIEL [SNF5],3.16 ± 0.071,3.3 ± 0.08,3.49 ± 0.082,3.31 ± 0.059
GRVKALEQFMERNNIGE [YDL116W/NUP84],2.78 ± 0.12,2.68 ± 0.08,2.75 ± 0.15,3.07 ± 0.1
LPAYSGEIGDFFSSDWR [POP1],3.04 ± 0.11,3.32 ± 0.089,3.24 ± 0.068,3.16 ± 0.096
DLSSAASASGAAGAGAA [FAS2],1.78 ± 0.13,1.51 ± 0.11,–,1.66 ± 0.19
KSSLSLRDHALSLTAFT [ITC1],1.63 ± 0.036,2.14 ± 0.036,1.64 ± 0.064,2.16 ± 0.036
SIGKNPFNKPNIETGEN [SWI3],3.04 ± 0.055,3.03 ± 0.048,2.87 ± 0.037,2.97 ± 0.044
SSEGFYSKIKHLGLDDP [SIR2],1.83 ± 0.2,2.72 ± 0.14,1.96 ± 0.17,1.2 ± 0.14

Sequence,protein stability index (doa10∆),protein stability index (pdr5∆),protein stability index (san1∆),protein stability index (ubr1∆)
AAANNNIKPVEQHHINN [GAL11],2.97 ± 0.095,2.67 ± 0.066,2.72 ± 0.077,2.96 ± 0.062
KFIALCEQQPSQEREFS [SIN4],2.78 ± 0.055,2.82 ± 0.063,2.67 ± 0.088,2.79 ± 0.056
NQNICTSVTRRSPVFAL [GRR1],1.43 ± 0.039,1.6 ± 0.037,1.5 ± 0.058,1.74 ± 0.031
GSKKGQEGKISSVYRLK [RPL26A],3.15 ± 0.11,2.94 ± 0.096,2.7 ± 0.086,3.33 ± 0.11
DEINTAQDKWHLLPAFL [RET1],3.51 ± 0.16,3.31 ± 0.13,3.29 ± 0.07,–
KYFTELSHYIRQCFQDN [MED1],2.38 ± 0.053,2.35 ± 0.06,1.92 ± 0.089,2.5 ± 0.038
LSLGMDFIKFDQIAVCE [BRN1],3 ± 0.085,3.01 ± 0.079,2.77 ± 0.057,2.89 ± 0.071
LKSESATSQYLKQDLKK [YGL172W/NUP49],2.81 ± 0.079,2.88 ± 0.072,2.9 ± 0.061,2.95 ± 0.079
TMTYEEVAKRLVELMFI [FAS1],1.79 ± 0.067,2.22 ± 0.071,2.52 ± 0.084,2.14 ± 0.069
ENKTKKDNDKNLKFLKN [SRB4],3.42 ± 0.064,3.4 ± 0.079,3.28 ± 0.048,3.42 ± 0.057
QQQLVNQMKVAPIPKQL [GAL11],2.94 ± 0.046,2.96 ± 0.041,2.974 ± 0.026,2.63 ± 0.038
TEAEETSIHSTISILAA [RRP43],1.28 ± 0.043,1.63 ± 0.045,1.77 ± 0.068,1.37 ± 0.035
GDSGISPEESKARSPGI [SIR4],3.52 ± 0.15,–,–,–
GWYHSHPGFGCWLSSVD [RPN11],2.72 ± 0.12,3.09 ± 0.072,2.35 ± 0.087,2.64 ± 0.12
VLLATWNLEKWREIIEK [IRR1],–,3.14 ± 0.16,2.92 ± 0.1,–
TDCKFIRVSGAELVQKY [RPT6],3.01 ± 0.14,3.24 ± 0.16,3.16 ± 0.15,2.93 ± 0.11
ENDLLQEFDSELSKEEK [SMC3],2.74 ± 0.3,–,–,3.03 ± 0.27
HDGGFDLVHIKDSLDNT [RPS4A],2.05 ± 0.079,2.26 ± 0.06,2.73 ± 0.12,2.33 ± 0.04
LLLSPDQWYCIDKLEDL [ITC1],3.06 ± 0.11,3.4 ± 0.11,3.22 ± 0.097,2.48 ± 0.077
ESPLSVAIQQGDIKPEF [YML103C/NUP188],2.23 ± 0.11,1.44 ± 0.08,1.95 ± 0.11,2.38 ± 0.075
GGAYTVSTAAAATVRST [RPL43A],2.1 ± 0.053,2.25 ± 0.049,1.95 ± 0.069,2.14 ± 0.048
NFEAVFERLVPRGTAKL [SMC3],2.93 ± 0.15,2.84 ± 0.16,–,2.83 ± 0.042
YIDIRTNNVLRKLGLLG [MTW1],1.49 ± 0.053,1.76 ± 0.069,1.64 ± 0.15,1.5 ± 0.056
MAVGKNKRLSRGKKGLK [RPS1B],1.49 ± 0.13,1.62 ± 0.083,1.64 ± 0.14,1.46 ± 0.12
AGYTTHLMKRIQKGPVR [RPS17A],2.2 ± 0.11,2.97 ± 0.15,1.86 ± 0.16,2.57 ± 0.096
VSFYFEDGTIESYNQND [SIN4],2.2 ± 0.083,2.34 ± 0.1,2.41 ± 0.076,2.92 ± 0.084
